Measurements published in US20070231258A1, “Peptide conjugates” (KARYON CTT LTD., priority 2006, published 2007).
Values belong to the compound of their own block, whether it stands above or below them. *1 amine or outer side, *2 acyl side, *3 side chain or, on linkers, in order; H or OH if unused. Where a SMILES comes first, the peptide text is derived from it. Bridges are numbered along the chain shown (N, C = ends). Primed or numbered codes have the meaning given here. [ ]: non-standard residue; d: D form. The star is where a group is joined. X1 = O=C(O)CN(CCN(CC(=O)O)CC(Cc1ccc(NC(=S)NCCOCCOCCN*)cc1)N(CC(=O)O)CC(=O)O)CC(=O)O; DTPA′ = diethylenetriaminepentaacetic acid chelator; NHCH2CH2SCH2CO = O=C(CSCCN[*:1])[*:2]; NH(CH2CH2O)2CH2CH2NH2 = NCCOCCOCCN*; AEEEA = NCCOCCOCCOCC(=O)O; PEG3 = NCCOCCOCCOCCC(=O)O; AABz = not defined here

Assays:
in vitro = settings: human, plasma
Description: (§1) The peptide conjugates (10-20 μg) was added to a human blood plasma/PBS mixture (1:1) in a total volume of 500 μl and incubated at 37° C. After incubation 100 μl per time point (0 and 240 min) was transferred to YM-10 (Microcon, cut-off 10000 MW; manufacturer Millipore), centrifuged (10000 RPM) 15 min at 4° C. 50 μl of the spin-through material was analyzed by HPLC.
(§2) HPLC: Waters 626 pump, 600S controller, Waters 996 photo diode array detector. Column: C18, 300 Å, 5 μm, 2.1×250 mm. Eluents for the non-conjugated functional peptides: A 0.1% TFA, B 0.075% TFA/100% ACN. Gradient: 0-100% B in 60 min. Flow: 180 μl/min. Loop: 50 μl.
(§3) Eluents for the functional peptide conjugates: Eluent A: 0.05 M ammonium acetate; B: 50% 0.05 M ammonium acetate/50% ACN. Gradient: 0-100% B in 60 min. Flow: 180 μl/min. Loop: 50 μl. One-minute fractions were collected and analyzed with MALDI-TOF.
(§4) Peptide mass: Bruker Ultraflex MALDI-TOF, N2-laser 337 nm, matrix saturated solution of α-cyano-4-hydroxycinnamic acid, reflector mode.

[1] = Plasma protein binding and plasma stability assay in vitro (ultrafiltration, LC/MS/MS); type: in vitro ADME, mouse
Description: The plasma protein binding and plasma stability of the targeting agents MJ143 (lactam-bridged; described in Example 8) and MJ142 (cystine-bridged; described below) comprising functional peptide LRSGRG was compared in mouse plasma in vitro.
The study compounds were spiked to mouse plasma to give 10 μM concentration. The samples of 1.5 ml were incubated at 37° C. and 200 μl aliquots were taken after 0 min, 30 min, 60 min, 2 h and 4 h. Incubations were made in duplicate. The aliquot samples were ultrafiltrated for 30 min (Millipore YM-10 filters, 10 kDa cut-off, 12 000 rpm) and the supernatants were analysed using LC/MS/MS. The sample concentrations were quantified against calibration curves created using standard samples spiked to ultrafiltrated mouse plasma to concentrations 0.1, 0.5, 1, 5 and 10 μM.
A Finnigan Surveyor chromatographic system (Thermo-Finnigan, San Jose, Calif., USA) with autosampler, vacuum degasser and column oven was used in the analysis. The analytical column was a Waters SymmetryShield RP18, 2.1×50 mm, 3.5 μm together with Phenomenex Luna C18 precolumn, 4.0×2.0 mm, 3.0 μm (Phenomenex, Torrance, Calif., USA). The eluents were (A) 0.02% acetic acid in water (pH 3.6) and (B) methanol, with flow rate of 300 μl/min. The elution gradient was from 5% B to 90% B in five minutes, followed by column equilibration. The column oven temperature was 30° C. LC/MS/MS data was acquired with a Finnigan TSQ Discovery MAX triple quadrupole mass spectrometer equipped with an Ion MAX electrospray ionization source. Before LC/MS/MS runs, the instrument was tuned with a 5 μg/ml solution of study compounds to obtain the maximum sensitivity with multiple reaction mode. The collision gas was argon at 1.5 mTorr.

C8161 tumors = assay: Targeting peptide biodistribution (Eu content of tissues) in C8161 tumor-bearing mice; type: in vivo, athymic nude mice; settings: 4 nmol i.v. tail vein, 20 min circulation; for accumulation of europium in tumor compared to normal tissue: kidney high due to excretion; for ratio of tumor Eu-content to muscle Eu-content: perfused
Description: It is shown that the tested conjugates according to the present invention selectively target to primary tumors in vivo but not to normal tissues or organs.
For production of experimental tumors 1×10^6 cells of C8161 line (described in Example 9) were injected subcutaneously into the flank of athymic nude mice strain (Harlan Laboratories). Tumors were harvested when they had reached a weight of about 0.1 g. Tumor-bearing mice were anesthetized by 0.02 ml/g body weight of Avertin [10 g 2,2,2-tribromoethanol (Fluka) in 10 ml 2-methyl-2-butanol (Sigma Aldrich)] intraperitoneally (i.p.).
To determine the biodistribution pattern of the conjugates, 4 nmol of MJ015 or MJ053 was injected into the tail vein of athymic nude mice in a volume of 100 μl in physiological saline solution (Baxter). The conjugate was allowed to circulate for 20 min. Mice were then perfused through the heart with 60 ml of physiological saline. Organs and tissues, including tumors were collected and weighed.
For determination of the Eu content of the tumors and control organs, 0.1-0.2 g of tissue was transferred into lysis buffer (20 mM Tris-HCl, 150 mM NaCl, 1% Nonident P40, pH 7.5) and homogenized. Eu-content was analyzed from tissue lysates prepared into the DELFIA Inducer solution (Perkin Elmer Wallac Ltd., Turku, Finland) and transferred to DELFIA Micro titration strip plates (Perkin Elmer Wallac Ltd, Turku, Finland). Time-resolved fluorescence was measured after incubation with a Wallac 1420 VICTOR3™ V plate reader using a D615 nm filter.

[2] = Plasma stability of the peptide conjugates in human blood plasma/PBS (HPLC)
Description: as §1, §2, §3, §4

remaining at 4 h (in vitro): 25%
Compound: CC(C)C[C@@H]1NC(=O)[C@@H](NC(=O)CN)CSSC[C@@H](C(=O)NCC(=O)NCCOCCOCCN)NC(=O)CNC(=O)[C@H](CCCNC(=N)N)NC(=O)CNC(=O)[C@H](CO)NC(=O)[C@H](CCCNC(=N)N)NC1=O [KK12, Gly-Cys*-Leu-Arg-SerGly-Arg-Gly-Cys*-Gly-NH(CH2CH2O)2CH2CH2NH2, reference compound] (H-GCLRSGRGCG-{NH(CH2CH2O)2CH2CH2NH2}; disulfide 2-9; N-terminus assumed)

remaining at 4 h (in vitro): 92%
Compound: CC(C)C[C@@H]1NC(=O)[C@@H](C)NC(=O)CC[C@@H](C(=O)NCCOCCOCCN)NC(=O)CNC(=O)[C@H](CCCNC(=N)N)NC(=O)CNC(=O)[C@H](CO)NC(=O)[C@H](CCCNC(=N)N)NC1=O [KK51, D-Ala*-Leu-Arg-SerGly-Arg-Gly-Glu*-NH(CH2CH2O)2CH2CH2NH2] ([dA]LRSGRGE-{NH(CH2CH2O)2CH2CH2NH2}; lactam N-8)

Compound: CC(=O)N[C@H]1CSSC[C@@H](C(=O)NCC(=O)N[C@@H](C)C(=O)NCCOCCOCCNC(=S)Nc2ccc(CC(CN(CCN(CC(=O)O)CC(=O)O)CC(=O)O)N(CC(=O)O)CC(=O)O)cc2)NC(=O)CNC(=O)[C@H](CCCNC(=N)N)NC(=O)CNC(=O)[C@H](CO)NC(=O)[C@H](CCCNC(=N)N)NC(=O)[C@H](CC(C)C)NC1=O (stereo partly shown) [MJ142, reference compound] (Ac-CLRSGRGCGA-X1; disulfide 1-8)
fraction unbound at 0 h, 10 μM ([1]; 0 h, mouse plasma, 10 μM, 37° C., ultrafiltrate, read-out: Peptide-DTPA[In] relative remaining peak areas/unbound fraction (%)): 0.48
fraction unbound at 30 min, 10 μM ([1]; 30 min, mouse plasma, 10 μM, 37° C., ultrafiltrate, read-out: Peptide-DTPA[In] relative remaining peak areas/unbound fraction (%)): 0.44
fraction unbound at 1 h, 10 μM ([1]; 1 h, mouse plasma, 10 μM, 37° C., ultrafiltrate, read-out: Peptide-DTPA[In] relative remaining peak areas/unbound fraction (%)): 0.35
fraction unbound at 2 h, 10 μM ([1]; 2 h, mouse plasma, 10 μM, 37° C., ultrafiltrate, read-out: Peptide-DTPA[In] relative remaining peak areas/unbound fraction (%)): 0.19
fraction unbound at 4 h, 10 μM ([1]; 4 h, mouse plasma, 10 μM, 37° C., ultrafiltrate, read-out: Peptide-DTPA[In] relative remaining peak areas/unbound fraction (%)): 0.06
fraction unbound at 0 min, 10 μM ([1]; mouse plasma, 0 min incubation, during the 30 min ultrafiltration period, read-out: disappearance due to protein binding (converted)): ~0.48

Compound: a*IREE*-Tegc-AEM-AABz-DTPA-Eu [MJ053]
accumulation of europium in tumor compared to normal tissue (C8161 tumors): accumulated strongly and selectively in C8161 tumors
ratio of tumor Eu-content to muscle Eu-content (C8161 tumors): 3.9

Compound: a*LRSGRGE*-Teg-AEM-AABz-DTPA-Eu (LRSGRGE-{AEEEA-NHCH2CH2SCH2CO-AABz-DTPA′}; lactam N-7; not fully specified (N-terminus); reading uncertain; also: DTPA chelate of Eu) [MJ015]
accumulation of europium in tumor compared to normal tissue (C8161 tumors): accumulated strongly and selectively in C8161 tumors
ratio of tumor Eu-content to muscle Eu-content (C8161 tumors): 7.1

Compound: a*LRSGRGE*-Teg-AEM-AABz-DTPA-Gd (LRSGRGE-{AEEEA-NHCH2CH2SCH2CO-AABz-DTPA′}; lactam N-7; not fully specified (N-terminus); reading uncertain; also: DTPA chelate of Gd) [MJ059]
Observed compound peak heights prior to incubation ([2]; 0 h, human blood plasma/PBS 1:1, 37° C.): 100%
Observed compound peak heights after four hours ([2]; 4 h, human blood plasma/PBS 1:1, 37° C.): 100%
degradation during incubation in plasma ([2]; 4 h incubation in human plasma): no degradation

Compound: a*LRSGRGE*-Tegc-AEM-AABz-DTPA-In (LRSGRGE-{PEG3-NHCH2CH2SCH2CO-AABz-DTPA′}; lactam N-7; not fully specified (N-terminus); reading uncertain; also: In chelated by DTPA) [MJ143]
Peptide-DTPA[In] relative remaining peak areas/unbound fraction (%) ([1]; 0 h, mouse plasma, 10 μM, 37° C., ultrafiltrate): 71%
Peptide-DTPA[In] relative remaining peak areas/unbound fraction (%) ([1]; 30 min, mouse plasma, 10 μM, 37° C., ultrafiltrate): 71%
Peptide-DTPA[In] relative remaining peak areas/unbound fraction (%) ([1]; 1 h, mouse plasma, 10 μM, 37° C., ultrafiltrate): 70%
Peptide-DTPA[In] relative remaining peak areas/unbound fraction (%) ([1]; 2 h, mouse plasma, 10 μM, 37° C., ultrafiltrate): 66%
Peptide-DTPA[In] relative remaining peak areas/unbound fraction (%) ([1]; 4 h, mouse plasma, 10 μM, 37° C., ultrafiltrate): 61%
plasma protein binding, lactam-bridged vs cystine-bridged version ([1]; mouse plasma in vitro): considerably lower plasma protein binding
plasma stability, lactam-bridged vs cystine-bridged version ([1]; mouse plasma in vitro): greatly more stable
